# Data published in publication doi:10.1101/2024.03.07.583919 (bioRxiv, 2024).
# Changes are numbered by the printed parent chain. Numbers in names are those of the source.
# B1: wild-type human GCAP1-E6S (Guanylate Cyclase Activating Protein 1), myristoylated (natural protein)
# chain: MGNVMSGKSVEELSSTECHQWYKKFMTECPSGQLTLYEFRQFFGLKNLSPSASQYVEQMFETFDFNKDGYIDFMEYVAALSLVLKGKVEQKLRWYFKLYDVDGNGCIDRDELLTIIQAIRAINPCSDTTMTAEEFTDTVFSKIDVNGDGELSLEEFIEGVQKDQMLLDTLTRSLDLTRIVRRLQNGEQDEEGADEAAEAAG
# modifications: myristoylated at the N-terminal (by S. cerevisiae N-myristoyltransferase)
# B2: E111V-GCAP1 (human GCAP1-E6S with the cone-rod dystrophy substitution E111V), myristoylated (natural protein)
# chain: B1 chain with E111V
# modifications: myristoylated at the N-terminal (by S. cerevisiae N-myristoyltransferase)
# Target: the molecule itself
# Assay: SEC
row,Protein,binding result
1,B1,binds
2,B2,binds
